Results on 17 molecules are retold here after US20110190196A1 (University of California, published 2011).

Like-named read-outs stand apart in the source and are kept apart here.

What all share (experiment): cell-based or functional assay
For experiment [1], the target named is T1, ATP-binding cassette transporter A1 (ABCA1) (UniProt P41233 1-2261, limits assumed).
Experiment [2] concerns the target T1, ATP-binding cassette transporter A1 …. The source holds these as a separate data set.
For experiment [3] the target is unchanged. This is another data set of the same source.
The target is the same in experiment [4]. The source holds these as a separate data set.
For experiment [5] the target is unchanged. The source holds these as a separate data set.
Experiment [6] has the same target. The source holds these as a separate data set.
Experiment [7] has the same target. This is another data set of the same source.
For experiment [8] the target is unchanged. The source holds these as a separate data set.

T1 sequence (P41233 whole entry): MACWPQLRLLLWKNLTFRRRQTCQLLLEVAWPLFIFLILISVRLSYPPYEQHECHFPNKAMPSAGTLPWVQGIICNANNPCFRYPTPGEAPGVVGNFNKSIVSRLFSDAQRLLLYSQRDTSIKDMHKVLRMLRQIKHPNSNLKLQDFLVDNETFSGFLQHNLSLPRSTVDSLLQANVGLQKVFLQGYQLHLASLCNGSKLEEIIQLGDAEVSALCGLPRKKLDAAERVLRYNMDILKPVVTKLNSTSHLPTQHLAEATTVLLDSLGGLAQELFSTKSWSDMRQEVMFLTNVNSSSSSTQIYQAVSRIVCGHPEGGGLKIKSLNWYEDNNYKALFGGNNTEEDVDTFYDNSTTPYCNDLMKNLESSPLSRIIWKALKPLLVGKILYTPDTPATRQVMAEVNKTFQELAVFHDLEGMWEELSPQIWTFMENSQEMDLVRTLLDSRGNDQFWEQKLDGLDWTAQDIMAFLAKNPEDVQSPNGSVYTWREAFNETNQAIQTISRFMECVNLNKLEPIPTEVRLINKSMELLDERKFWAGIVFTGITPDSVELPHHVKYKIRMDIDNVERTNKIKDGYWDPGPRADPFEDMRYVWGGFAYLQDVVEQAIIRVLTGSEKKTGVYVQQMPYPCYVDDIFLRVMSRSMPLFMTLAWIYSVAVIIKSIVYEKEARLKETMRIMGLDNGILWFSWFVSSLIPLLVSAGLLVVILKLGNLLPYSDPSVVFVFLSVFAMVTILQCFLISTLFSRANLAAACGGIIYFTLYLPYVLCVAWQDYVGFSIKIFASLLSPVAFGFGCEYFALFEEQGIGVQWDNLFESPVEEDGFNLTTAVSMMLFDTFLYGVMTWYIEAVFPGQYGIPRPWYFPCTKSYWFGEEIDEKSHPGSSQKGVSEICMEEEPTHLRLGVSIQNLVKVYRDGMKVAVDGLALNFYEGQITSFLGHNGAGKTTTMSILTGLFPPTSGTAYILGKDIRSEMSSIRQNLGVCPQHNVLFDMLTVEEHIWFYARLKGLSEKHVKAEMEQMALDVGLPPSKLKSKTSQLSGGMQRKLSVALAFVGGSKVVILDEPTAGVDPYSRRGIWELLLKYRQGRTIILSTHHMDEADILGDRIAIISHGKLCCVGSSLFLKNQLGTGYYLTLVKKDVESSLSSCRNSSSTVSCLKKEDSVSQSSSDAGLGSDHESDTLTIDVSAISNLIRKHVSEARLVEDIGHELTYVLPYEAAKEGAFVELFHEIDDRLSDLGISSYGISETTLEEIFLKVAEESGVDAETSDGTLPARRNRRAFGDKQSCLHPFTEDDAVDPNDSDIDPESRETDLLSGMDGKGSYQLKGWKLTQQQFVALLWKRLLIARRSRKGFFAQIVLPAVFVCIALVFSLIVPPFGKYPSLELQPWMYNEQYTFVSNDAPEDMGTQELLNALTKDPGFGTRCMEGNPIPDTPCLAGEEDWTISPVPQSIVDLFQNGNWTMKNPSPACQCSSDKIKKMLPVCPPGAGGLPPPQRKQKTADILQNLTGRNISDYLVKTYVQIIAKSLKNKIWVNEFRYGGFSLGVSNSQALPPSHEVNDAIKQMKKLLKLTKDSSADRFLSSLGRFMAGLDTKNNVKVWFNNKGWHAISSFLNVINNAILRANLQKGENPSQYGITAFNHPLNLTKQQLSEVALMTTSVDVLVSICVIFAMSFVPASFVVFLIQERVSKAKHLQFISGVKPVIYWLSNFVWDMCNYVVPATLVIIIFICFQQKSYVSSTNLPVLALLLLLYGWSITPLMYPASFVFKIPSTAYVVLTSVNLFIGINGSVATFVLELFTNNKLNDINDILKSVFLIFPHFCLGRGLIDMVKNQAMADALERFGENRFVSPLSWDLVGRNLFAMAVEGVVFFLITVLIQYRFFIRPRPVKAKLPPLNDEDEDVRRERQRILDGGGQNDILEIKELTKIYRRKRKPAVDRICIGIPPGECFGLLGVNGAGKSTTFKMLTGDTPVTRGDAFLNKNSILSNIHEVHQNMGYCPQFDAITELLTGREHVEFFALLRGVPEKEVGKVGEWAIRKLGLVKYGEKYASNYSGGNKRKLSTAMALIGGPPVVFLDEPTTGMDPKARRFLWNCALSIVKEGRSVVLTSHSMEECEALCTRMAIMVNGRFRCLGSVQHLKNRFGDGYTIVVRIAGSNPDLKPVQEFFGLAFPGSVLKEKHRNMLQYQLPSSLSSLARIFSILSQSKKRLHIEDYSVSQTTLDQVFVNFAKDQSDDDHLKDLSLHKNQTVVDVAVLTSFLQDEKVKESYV

Take ELRAKLEAWFEAFAEFFARF [N356-7]: in experiment [1], the “% cholesterol efflux/8 hours, No cAMP” value was found to be 2.78% and the “% cholesterol efflux/8 hours, Plus cAMP” value is 7%. In addition, in experiment [2], the “% cholesterol efflux/4 hours at 0.1 µg/ml” value is 0.15%, the “% cholesterol efflux/4 hours at 0.3 µg/ml” value came out at 0.23%, the “% cholesterol efflux/4 hours at 1.0 µg/ml” value amounted to 1.17% and the “% cholesterol efflux/4 hours at 3.0 µg/ml” value is 4.99%. In addition, in experiment [2], the “% cholesterol efflux/4 hours at 10 µg/ml” value came out at 5.49% and the “% cholesterol efflux/4 hours at 30 µg/ml” value came out at 5.66%.

As for ELREKLEAWFELFEEFFARFKS [N356-3], in experiment [1], the “% cholesterol efflux/8 hours, No cAMP” value came to 0.82% and the “% cholesterol efflux/8 hours, Plus cAMP” value turned out to be 3.94%. Besides, in experiment [2], the “% cholesterol efflux/4 hours at 0.1 µg/ml” value was found to be 0%, the “% cholesterol efflux/4 hours at 0.3 µg/ml” value came to 0.57%, the “% cholesterol efflux/4 hours at 1.0 µg/ml” value was determined as 1.2% and the “% cholesterol efflux/4 hours at 3.0 µg/ml” value came out at 4.34%. In experiment [2], the “% cholesterol efflux/4 hours at 10 µg/ml” value is 5.13% and the “% cholesterol efflux/4 hours at 30 µg/ml” value was determined as 3.24%.

As to ELRDRLEAWLDLLRELLERL [N1154-10], in experiment [3], the “% cholesterol efflux/8 hours, No cAMP” value came out at 2.66% and the “% cholesterol efflux/8 hours, Plus cAMP” value was found to be 8.25%. Further, in experiment [4], the “% cholesterol efflux/4 hours at 0.1 µg/ml” value stood at 0.58%, the “% cholesterol efflux/4 hours at 0.3 µg/ml” value was found to be 1%, the “% cholesterol efflux/4 hours at 1.0 µg/ml” value was 2.12% and the “% cholesterol efflux/4 hours at 3.0 µg/ml” value was found to be 5.25%. In addition, in experiment [4], the “% cholesterol efflux/4 hours at 10 µg/ml” value is 4.15% and the “% cholesterol efflux/4 hours at 30 µg/ml” value came to 3.7%.

In the case of ELRERLEAWLELLRELLERL [N1154-7], in experiment [3], the “% cholesterol efflux/8 hours, No cAMP” value is 1.23% and the “% cholesterol efflux/8 hours, Plus cAMP” value is 4.14%. In experiment [4], the “% cholesterol efflux/4 hours at 0.1 µg/ml” value turned out to be 0.23%, the “% cholesterol efflux/4 hours at 0.3 µg/ml” value stood at 0.83%, the “% cholesterol efflux/4 hours at 1.0 µg/ml” value worked out at 2.26% and the “% cholesterol efflux/4 hours at 3.0 µg/ml” value came to 4.14%. Moreover, in experiment [4], the “% cholesterol efflux/4 hours at 10 µg/ml” value amounted to 3.24% and the “% cholesterol efflux/4 hours at 30 µg/ml” value came out at 3.28%.

Consider ELRERLEAWFELFREFLERF [N1154-1], for which, in experiment [5], the “% cholesterol efflux/8 hours, No cAMP” value was determined as 1.85% and the “% cholesterol efflux/8 hours, Plus cAMP” value came to 5.2%. In experiment [6], the “% cholesterol efflux/4 hours at 0.1 µg/ml” value was found to be 0.1%, the “% cholesterol efflux/4 hours at 0.3 µg/ml” value came out at 0.41%, the “% cholesterol efflux/4 hours at 1.0 µg/ml” value amounted to 2.06% and the “% cholesterol efflux/4 hours at 3.0 µg/ml” value worked out at 5.11%. Moreover, in experiment [6], the “% cholesterol efflux/4 hours at 10 µg/ml” value amounted to 4.44% and the “% cholesterol efflux/4 hours at 30 µg/ml” value came to 3.67%.

For the molecule ELREKLEAWFELFAEFFARF [N356-6], in experiment [1], the “% cholesterol efflux/8 hours, No cAMP” value was 2.09% and the “% cholesterol efflux/8 hours, Plus cAMP” value turned out to be 4.04%. In addition, in experiment [2], the “% cholesterol efflux/4 hours at 0.1 µg/ml” value is 0.01%, the “% cholesterol efflux/4 hours at 0.3 µg/ml” value is 0.23%, the “% cholesterol efflux/4 hours at 1.0 µg/ml” value is 0.67% and the “% cholesterol efflux/4 hours at 3.0 µg/ml” value came out at 4.07%. In experiment [2], the “% cholesterol efflux/4 hours at 10 µg/ml” value worked out at 3.78% and the “% cholesterol efflux/4 hours at 30 µg/ml” value stood at 3.91%.

Regarding ELREKLEAWRELFEEFFARFKS [N356-2], in experiment [1], the “% cholesterol efflux/8 hours, No cAMP” value was found to be 1.27% and the “% cholesterol efflux/8 hours, Plus cAMP” value worked out at 6.52%. Also, in experiment [2], the “% cholesterol efflux/4 hours at 0.1 µg/ml” value turned out to be 0%, the “% cholesterol efflux/4 hours at 0.3 µg/ml” value turned out to be 0%, the “% cholesterol efflux/4 hours at 1.0 µg/ml” value was 0.02% and the “% cholesterol efflux/4 hours at 3.0 µg/ml” value amounted to 1.3%. In addition, in experiment [2], the “% cholesterol efflux/4 hours at 10 µg/ml” value was determined as 5.7% and the “% cholesterol efflux/4 hours at 30 µg/ml” value came to 5.92%.

For the molecule DLRDKLDAWFDLFRDFLDRF [N1154-3], in experiment [5], the “% cholesterol efflux/8 hours, No cAMP” value was determined as 1.61% and the “% cholesterol efflux/8 hours, Plus cAMP” value is 3.29%. Also, in experiment [6], the “% cholesterol efflux/4 hours at 0.1 µg/ml” value was 0%, the “% cholesterol efflux/4 hours at 0.3 µg/ml” value turned out to be 0.19%, the “% cholesterol efflux/4 hours at 1.0 µg/ml” value turned out to be 1.31% and the “% cholesterol efflux/4 hours at 3.0 µg/ml” value came to 2.66%. Also, in experiment [6], the “% cholesterol efflux/4 hours at 10 µg/ml” value amounted to 2.12% and the “% cholesterol efflux/4 hours at 30 µg/ml” value came to 2.21%.

With ELREKLEAWFELFAEFFARFK [N356-5], in experiment [1], the “% cholesterol efflux/8 hours, No cAMP” value worked out at 2.18% and the “% cholesterol efflux/8 hours, Plus cAMP” value is 5.97%. Also, in experiment [2], the “% cholesterol efflux/4 hours at 0.1 µg/ml” value amounted to 0.02%, the “% cholesterol efflux/4 hours at 0.3 µg/ml” value amounted to 0.31%, the “% cholesterol efflux/4 hours at 1.0 µg/ml” value came to 1.59% and the “% cholesterol efflux/4 hours at 3.0 µg/ml” value was found to be 4.27%. Also, in experiment [2], the “% cholesterol efflux/4 hours at 10 µg/ml” value amounted to 3.86% and the “% cholesterol efflux/4 hours at 30 µg/ml” value was 3.2%.

With DLRDKLDAWLDLLRDLLDRL [N1154-9], in experiment [3], the “% cholesterol efflux/8 hours, No cAMP” value came out at 1.81% and the “% cholesterol efflux/8 hours, Plus cAMP” value turned out to be 4.83%. Moreover, in experiment [4], the “% cholesterol efflux/4 hours at 0.1 µg/ml” value was determined as 0.08%, the “% cholesterol efflux/4 hours at 0.3 µg/ml” value was 0.43%, the “% cholesterol efflux/4 hours at 1.0 µg/ml” value was found to be 1.81% and the “% cholesterol efflux/4 hours at 3.0 µg/ml” value came to 3.48%. For the same molecule, in experiment [4], the “% cholesterol efflux/4 hours at 10 µg/ml” value is 3.31% and the “% cholesterol efflux/4 hours at 30 µg/ml” value amounted to 4.35%.

For the molecule ELREKLEAWFELFAEFFARFKS [N356-4], in experiment [1], the “% cholesterol efflux/8 hours, No cAMP” value was determined as 1.72% and the “% cholesterol efflux/8 hours, Plus cAMP” value worked out at 4.25%. In experiment [2], the “% cholesterol efflux/4 hours at 0.1 µg/ml” value was 0.14%, the “% cholesterol efflux/4 hours at 0.3 µg/ml” value was found to be 0.61%, the “% cholesterol efflux/4 hours at 1.0 µg/ml” value came out at 1.89% and the “% cholesterol efflux/4 hours at 3.0 µg/ml” value worked out at 5.68%. In addition, in experiment [2], the “% cholesterol efflux/4 hours at 10 µg/ml” value was 6.06% and the “% cholesterol efflux/4 hours at 30 µg/ml” value was found to be 6.52%.

In the case of DLRDRLDAWLDLLRDLLDRL [N1154-11], in experiment [3], the “% cholesterol efflux/8 hours, No cAMP” value was found to be 4.2% and the “% cholesterol efflux/8 hours, Plus cAMP” value was 9.04%. For the same molecule, in experiment [4], the “% cholesterol efflux/4 hours at 0.1 µg/ml” value worked out at 0.58%, the “% cholesterol efflux/4 hours at 0.3 µg/ml” value was 1.34%, the “% cholesterol efflux/4 hours at 1.0 µg/ml” value was found to be 2.56% and the “% cholesterol efflux/4 hours at 3.0 µg/ml” value is 4.84%. Further, in experiment [4], the “% cholesterol efflux/4 hours at 10 µg/ml” value is 4.17% and the “% cholesterol efflux/4 hours at 30 µg/ml” value turned out to be 5.55%.

Regarding ELRDKLEAWFDLFREFLERF [N1154-2], in experiment [5], the “% cholesterol efflux/8 hours, No cAMP” value was 1.47% and the “% cholesterol efflux/8 hours, Plus cAMP” value was 3%. In addition, in experiment [6], the “% cholesterol efflux/4 hours at 0.1 µg/ml” value came to 0.03%, the “% cholesterol efflux/4 hours at 0.3 µg/ml” value was 0.51%, the “% cholesterol efflux/4 hours at 1.0 µg/ml” value amounted to 2.17% and the “% cholesterol efflux/4 hours at 3.0 µg/ml” value turned out to be 2.59%. In experiment [6], the “% cholesterol efflux/4 hours at 10 µg/ml” value amounted to 2.14% and the “% cholesterol efflux/4 hours at 30 µg/ml” value worked out at 1.66%.

In the case of ELREKLEAWFEAFEEFFARFKS [N356-1], in experiment [1], the “% cholesterol efflux/8 hours, No cAMP” value is 0.86% and the “% cholesterol efflux/8 hours, Plus cAMP” value is 4.16%. Also, in experiment [2], the “% cholesterol efflux/4 hours at 0.1 µg/ml” value was 0%, the “% cholesterol efflux/4 hours at 0.3 µg/ml” value amounted to 0%, the “% cholesterol efflux/4 hours at 1.0 µg/ml” value stood at 0.23% and the “% cholesterol efflux/4 hours at 3.0 µg/ml” value worked out at 4.71%. In experiment [2], the “% cholesterol efflux/4 hours at 10 µg/ml” value was found to be 5.61% and the “% cholesterol efflux/4 hours at 30 µg/ml” value was 3.5%.

Regarding EVREKLEAWFEAFREFAERFKS [N965-1], in experiment [7], the “% cholesterol efflux/8 hours, +cAMP” value is 9.9% and the “% cholesterol efflux/8 hours, -cAMP” value turned out to be 1.75%. In experiment [8], the “% cholesterol efflux/4 hours at 0.1 µg/ml” value came out at 0%, the “% cholesterol efflux/4 hours at 0.3 µg/ml” value was found to be 0.13%, the “% cholesterol efflux/4 hours at 1.0 µg/ml” value was determined as 0% and the “% cholesterol efflux/4 hours at 3.0 µg/ml” value was determined as 0.44%. In addition, in experiment [8], the “% cholesterol efflux/4 hours at 10 µg/ml” value was found to be 2.9% and the “% cholesterol efflux/4 hours at 30 µg/ml” value was 6.01%.

Regarding ELRDKLEAWLDLLRELLERL [N1154-8], in experiment [3], the “% cholesterol efflux/8 hours, No cAMP” value amounted to 1.31% and the “% cholesterol efflux/8 hours, Plus cAMP” value came to 4.38%. In experiment [4], the “% cholesterol efflux/4 hours at 0.1 µg/ml” value is 0%, the “% cholesterol efflux/4 hours at 0.3 µg/ml” value is 0.48%, the “% cholesterol efflux/4 hours at 1.0 µg/ml” value came out at 1.51% and the “% cholesterol efflux/4 hours at 3.0 µg/ml” value was found to be 3.41%. Besides, in experiment [4], the “% cholesterol efflux/4 hours at 10 µg/ml” value came out at 2.99% and the “% cholesterol efflux/4 hours at 30 µg/ml” value stood at 3.02%.

Turning to ELREKLEAWLELLRELLERL [N1154-6], in experiment [3], the “% cholesterol efflux/8 hours, No cAMP” value worked out at 1.17% and the “% cholesterol efflux/8 hours, Plus cAMP” value was 4.29%. In experiment [4], the “% cholesterol efflux/4 hours at 0.1 µg/ml” value was 0.18%, the “% cholesterol efflux/4 hours at 0.3 µg/ml” value turned out to be 0.46%, the “% cholesterol efflux/4 hours at 1.0 µg/ml” value turned out to be 2.51% and the “% cholesterol efflux/4 hours at 3.0 µg/ml” value stood at 4.73%. In experiment [4], the “% cholesterol efflux/4 hours at 10 µg/ml” value came out at 3.56% and the “% cholesterol efflux/4 hours at 30 µg/ml” value was 2.71%.
